According to patent US20110104176A1 (SAMSUNG ELECTRONICS, published 2011):

Key:
[1] = molecular target: human c-Met/Fc fusion protein (R&D Systems) (human) (UniProt P08581); assay: ELISA, c-Met/Fc coated at 2 ug/ml, goat anti-mouse IgG-HRP, OPD
[2] = molecular target: mouse c-Met/Fc fusion protein (R&D Systems) (mouse) (UniProt P16056); assay: as above
[3] = molecular target: T1, human c-Met protein (immobilized on a CM5 chip) (human, UniProt P08581 25-932, limits assumed); assay: SPR (Biacore), human c-Met immobilized on a CM5 chip, AbF46 flowed over
T1 sequence (P08581 25-932 limits assumed): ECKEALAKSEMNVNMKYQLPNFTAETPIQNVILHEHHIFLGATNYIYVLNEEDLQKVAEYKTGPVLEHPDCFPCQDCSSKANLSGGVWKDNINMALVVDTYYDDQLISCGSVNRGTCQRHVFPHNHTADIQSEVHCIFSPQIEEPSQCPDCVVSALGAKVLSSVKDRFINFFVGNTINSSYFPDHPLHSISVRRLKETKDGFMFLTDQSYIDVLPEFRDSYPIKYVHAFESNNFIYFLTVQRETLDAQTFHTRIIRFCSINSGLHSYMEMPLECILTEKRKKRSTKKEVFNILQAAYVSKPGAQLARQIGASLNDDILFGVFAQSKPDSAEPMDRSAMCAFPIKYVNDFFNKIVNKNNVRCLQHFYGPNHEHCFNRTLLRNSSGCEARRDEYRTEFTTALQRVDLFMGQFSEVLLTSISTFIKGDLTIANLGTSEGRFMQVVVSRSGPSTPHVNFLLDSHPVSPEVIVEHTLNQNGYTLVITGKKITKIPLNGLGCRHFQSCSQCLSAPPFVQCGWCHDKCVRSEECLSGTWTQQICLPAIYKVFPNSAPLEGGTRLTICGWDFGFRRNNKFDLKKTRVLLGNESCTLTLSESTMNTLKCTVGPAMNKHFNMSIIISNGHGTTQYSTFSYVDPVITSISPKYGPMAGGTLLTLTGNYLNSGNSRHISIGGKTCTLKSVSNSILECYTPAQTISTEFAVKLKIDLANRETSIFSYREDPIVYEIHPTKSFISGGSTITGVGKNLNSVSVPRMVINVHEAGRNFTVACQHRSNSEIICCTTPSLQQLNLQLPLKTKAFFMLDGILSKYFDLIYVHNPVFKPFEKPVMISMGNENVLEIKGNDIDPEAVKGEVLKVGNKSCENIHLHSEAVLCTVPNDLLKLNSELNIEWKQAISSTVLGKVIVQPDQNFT
Description: (§1) A surface plasmon resonance (SPR) device (Biacore) was used to measure the binding affinity of the monoclonal antibody AbF46 prepared in Example 1 to human c-Met protein. The human c-Met protein was first immobilized on a CM5 chip, and the monoclonal antibody AbF46 was allowed to flow into a microfluidic chamber to obtain kₐ (on) and kb (off) values as illustrated in FIG. 2. Then, the Kd value was calculated from the kₐ and kb values. […] In addition, the Chi² value, which represents the reliability of the experiment, was 0.822 (in a Biacore analysis method, a Chi² value of 1 or less indicates high reliability of the data).

[4] = molecular target: T1, human c-Met protein (immobilized on a …); assay: SPR (Biacore), human c-Met immobilized on a CM5 chip, antibody in flow
Description: as §1

mouse c-Met/Fc fusion protein (R&D Systems) (mouse), sequence (P16056 25-931 limits assumed): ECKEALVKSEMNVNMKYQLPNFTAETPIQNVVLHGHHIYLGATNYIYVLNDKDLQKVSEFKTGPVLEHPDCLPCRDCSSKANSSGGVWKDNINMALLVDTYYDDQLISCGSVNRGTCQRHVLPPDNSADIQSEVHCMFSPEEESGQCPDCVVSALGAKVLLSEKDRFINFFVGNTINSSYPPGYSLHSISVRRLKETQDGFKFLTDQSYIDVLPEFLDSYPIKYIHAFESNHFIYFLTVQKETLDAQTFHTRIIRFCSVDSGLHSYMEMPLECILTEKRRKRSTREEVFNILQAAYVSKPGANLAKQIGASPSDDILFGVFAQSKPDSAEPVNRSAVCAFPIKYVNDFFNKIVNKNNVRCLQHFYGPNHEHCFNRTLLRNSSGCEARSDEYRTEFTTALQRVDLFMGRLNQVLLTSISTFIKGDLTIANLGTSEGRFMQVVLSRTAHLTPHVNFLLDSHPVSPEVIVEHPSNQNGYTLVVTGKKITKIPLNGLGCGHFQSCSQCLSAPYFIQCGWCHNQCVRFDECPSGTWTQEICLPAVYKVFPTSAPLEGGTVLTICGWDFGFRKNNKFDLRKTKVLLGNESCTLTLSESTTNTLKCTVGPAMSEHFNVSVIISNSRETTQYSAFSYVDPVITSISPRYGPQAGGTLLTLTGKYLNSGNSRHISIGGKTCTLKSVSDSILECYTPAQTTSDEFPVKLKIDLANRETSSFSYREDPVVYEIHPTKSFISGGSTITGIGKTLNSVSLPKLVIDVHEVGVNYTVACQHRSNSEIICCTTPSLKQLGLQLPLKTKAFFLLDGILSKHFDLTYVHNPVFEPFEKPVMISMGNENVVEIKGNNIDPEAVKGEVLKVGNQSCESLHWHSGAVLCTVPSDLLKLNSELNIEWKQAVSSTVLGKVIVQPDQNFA
human c-Met/Fc fusion protein (R&D Systems) (human), sequence (P08581 25-932 limits assumed): as the sequence (P08581 25-932 limits assumed) above

absorption at 450 nm [1] | absorption at 450 nm [2] | koff [3] | kon [3] | Kd [4] | Molecule
0.373 | 0.113 |  |  |  | 5D5 (Genentech), monoclonal antibody against human c-Met
 |  | 0.00155 s⁻¹ | 385000 M⁻¹ s⁻¹ | 4 nM | monoclonal antibody AbF46 (antibody, IgG1, V domains shown, also called SAIT-MET-AbF46 (hybridoma cell line); antibody of hybridoma KCLRF-BP-00220) VH: EVKLVESGGGLVQPGGSLRLSCATSGFTFTDYYMSWVRQPPGKALEWLGFIRNKANGYTTEYSASVKGRFTISRDNSQSILYLQMDTLRAEDSATYYCARDNWFAYWGQGTLVTVSA VL: DILMTQSPSSLTVSAGEKVTMSCKSSQSLLASGNQNNYLAWHQQKPGRSPKMLIIWASTRVSGVPDRFIGSGSGTDFTLTINSVQAEDLAVYYCQQSYSAPLTFGAGTKLELKR
